B1: 826 (protein)
chain: MSDYPSVNDLTLEEKAALTSGTNPWSLGNVAAKGLPNYTITDGPHGLRKAQNTESMDVEENVPATCFPPAAGMACSWNPELVERVGEAMGEECIQEQVAVILGPGVNIKRNPLGGRCFEYWSEDPYLAGHTAVGIVKGVQSKGVGTSLKHFAANNQETDRLRISATISPRAMREIYLPAFEYIVKTAQPWTVMCSYNKINGVFSSQNRWLLTDVLRGEWGFKGIVMSDWGAVSDRVAALNAGLNLEMPPSNTDDQIVAAAKDGRIPAAQLDEMAQGMIDLVAKARPAMSRDGYRYDVDAHNEVARQAAVESMVLLKNEDATLPVAKGAKIAVIGEFARTPRYQGAGSSLINPTKLTSFLDAIEERGVAADFAPGFTLDDAAQDPALTEQAVTAAQQADVVLLFLGLPAAYESEGFDRTTLDIPAKQVEVLDAVAAANPNVAVVLSNGSVVSMPWRGRAKAILETWLLGQAGGAALADVIFGDETPSGKLAQTIIDDVNDDPSAMNWPGEEGHVDYGEGVFVGYRYHDTFRKQVTYPFGYGLSYATFDVHDATVAKTGPRTAEVTVTVTNTSDVAGAETVQVYVAPPKAKVARPVHELKGFAKVALEPGESKNVTIALDDRAFAYWSERFDDWHVEGGTYTVEVGVSSRDIVSRIDVEIDDDGKIMNLDEWSTFGEWLDDPIGAPILQHVLDDMAKEAGHPVIPDSALMVMFLRSMPLRSLSVILGEAGEQVAANLTEAYRKATA
modifications: Bifidobacterium saeculare
B2: 868 (protein, listed as Dictyoglomus thermophilum)
chain: MKLEYKIPYRIERGEQTNFSPLFIRIISQGGKQMEKDIKKLISQMTLEEKASLCSGLDFWHTKPIERLGIPSIRMSDGPHGLRKEETMFSKTVPATCFPTAVTIAASWDKLLAEKMGKAIGEECQAENVQILLGPGINMKRSPLCGRNFEYYSEDPILAGELAAHFIKGVQSQGVGTSLKHFAANNQEHRRLTVDAIIDERTLREIYLTAFEKAVKEAKPWTVMCSYNKVNGTYASENEFLLTKVLREEWGFEGFVVSDWGAVNDRVKGLAAGLDLQMPYDGGNGDKKIIEAVKSGKLPEEVLDRAVERILKIVFKAIENKKENATYDKEAHHKLAREIARECFVLLKNENNILPLKKEGKIALIGAFAKKPQIQGGGSAHVNPTRVDDAVEEIKKLVGDKVEILYADGYHIEKDDVDEKLIEEAKEIAKKADVVVIFAGLPERYESEGFDRPHMKMPESHNRLIEEVAKVNSNLVVVLSNGAPIEMPWVDKPKAILETYRGGQAWGGAVADVLFGVVNPSGKLPESFPKKLSDNPSYLFFPGEDDRSEYREGIFIGYRYYDKKEMEVLFPFGYGLSYTTFEYSDLKLDKKEMKDDEVLKVSVKVKNTGKVKGKEIVQLYVRDVKSNYIRPEKELKGFEKVELEPGEEKEVVFYLDKRAFAFYNIDIKDWYVEDGEFEILIGKSSRDIVLKDKVFVKSTTKIKRHYHINSTIGDIMSDPEASAKFKHILEQFASAFPAFSSEEAIMNFAEMMKYMPLRNLIHFGQGKFTEEMLENLLKEINS
B3: 879 (protein, listed as Morchella conica)
chain: MTVSPLPKDLQKKVNDVLDSLTLLEQVSLLAGKDFWRTVEIPGKVPSIKVTDGPSGARGQFFSGGTKAAFFPSGVSLAATFDPELITHIGNALGQETKTKAAQVLLAPTACNHRSPLGGRNFESFSEDPYLSGKLAASYISGVQAEGVAVTMKHFVANEQETKRFSVNEIIDERALREIYLKPFEIAVREAGPWGIMSSYNKVNAHHADLHPFSMKQVLRAEWGWDGLVMSDWGGTNSTAESLIAGLDLEMPGPTRRRGELLLKAVQDTNSSPELLAAIKTGARHVLELIARTGRWGKFQEAEEQAVDKLEHRELIRKTGAHGIVLLKNEGATLPIKREQIKSVAWIGPNANETIAGGGGSANLNPHYLTNPLESFTAAVEENDIKVAYEIGCQTEKWVRVFPVEEGRARTAPSATEGAPGLKVDFFGGRECSGECVASNVMTTSNIFLMDGKPPVLGDQDYSVRITTYIRPEATGEHVVGVGSIGPTKIYVDDKLLIDHTHWIELGELFFTSGSEEVTQKIHLEAGKWYKLVAETTSKSPEQKLPDMGNDNLDFASAIGIRLGIDAVRDVQEYIDRAATLAKKSDVAVVVVGMNNEWESEGYDRHTMALPGKQNELIEAVVKANPNTIVVNQSGCPVTMPWLDRVPAVLQAWYQGQEAGNALVDVLLGKVNPSGRLPITFPKRLEDNPSFGNFGDGGEKNQIAYTEGIYVGYRHYNSRDIPVLFPFGFGLSYTSFELGAPTVDQAAFEIGKKITVQVPVKNTGAIKGIETVQVYLAPKKSAVDRPKRELKGFAKIELEAGESGVARIELDHYAPGLFCEERKCWRALEGAYVVEVGRNVQEIDGSVEVAVEREYEWVF

A short description of one experiment: Experiment 5-2: screening of additional glucosidases for deglycosylation with QS-18 in crude bark extract (80%) at pH 6 and 35 deg C. In kind it is biochemical, Quillaja saponaria. The note with it: CBE 80%, pH 6, 35 deg C, 18 hours; UV HPLC. The gist of the method: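 Clarified glucosidase lysate (prepared at pH 6) was incubated with pH 6-adjusted crude bark extract at 35 deg C with shaking for 18 hours. Reactions were quenched with MeCN containing 2% AcOH and hexanophenone, then analysed by UV HPLC.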
Consider B1, for which the “Experiment 5-2 % conv” value turned out to be 0.8%.

With B2, the “Experiment 5-2 % conv” value was less than 0.5%.

On to B3, for which the “Experiment 5-2 % conv” value was less than 0.5%.

A short description of another experiment: Experiment 5-3: screening of additional glucosidases for deglycosylation with QS-18 in treated bark extract (80%) at pH 6 and 35 deg C. The experiment is classed as biochemical, Quillaja saponaria. Conditions: TBE 80% (QS-21 approx. 4 g/L), pH 6, 35 deg C; UV HPLC. As for the experimental part:
Experiment 5-1 was repeated, replacing CBE with Treated Bark Extract (TBE) at pH 6. TBE was prepared from CBE by PVPP treatment and concentration, to provide TBE with a QS-21 concentration of approximately 4 g/L. TBE was adjusted to pH 6 by dropwise addition of 2M NaOH with stirring.
Turning to B1, the “Experiment 5-3 % conv” value was 1.4%.

Turning to B2, the “Experiment 5-3 % conv” value is less than 0.5%.

B3: the “Experiment 5-3 % conv” value is less than 0.5%.

A further experiment in a line: Experiment 5-1: screening of additional glucosidases for deglycosylation with purified QS-18 (0.04 mg/ml) at pH 7.5 and 30 deg C. In kind it is biochemical, Quillaja saponaria. Conditions: pH 7.5, 30 degrees C, 18 hours, LCMS/MS. As for the experimental part:
The 94 additional genes, together with positive control (DNA encoding SEQ ID No. 262) and negative control, were transformed, expressed, lysed and reacted in the same manner as described above for Experiment 4-1, except the reaction was incubated at 30 degrees C. for 18 hours.
Samples were analysed by LCMS/MS according to the procedure in Experiment 4-1.
For B1, the “Experiment 5-1 % conv” value is listed as 86.9%.

On to B2, for which the “Experiment 5-1 % conv” value came out at 89.9%.

Consider B3, for which the “Experiment 5-1 % conv” value is on record as 90.1%.

Values taken from patent publication US20240026407A1, “MODIFICATION OF SAPONINS” (GLAXOSMITHKLINE BIOLOGICALS SA, priority 2020, published 2024).
